Measurements published in patent publication US20250333503A1 (COMPUGEN, published 2025).

T1: human PVRIG (Poliovirus Receptor Related Immunoglobulin Domain Containing Protein) (human, UniProt Q6DKI7 41-326)
T1 construct: whole, on cells; on HEK293 over-expressing cells (some pools flag-tagged), Jurkat, CA46 or primary T cells; also called hPVRIG; C7orf15
T1 sequence (looked up): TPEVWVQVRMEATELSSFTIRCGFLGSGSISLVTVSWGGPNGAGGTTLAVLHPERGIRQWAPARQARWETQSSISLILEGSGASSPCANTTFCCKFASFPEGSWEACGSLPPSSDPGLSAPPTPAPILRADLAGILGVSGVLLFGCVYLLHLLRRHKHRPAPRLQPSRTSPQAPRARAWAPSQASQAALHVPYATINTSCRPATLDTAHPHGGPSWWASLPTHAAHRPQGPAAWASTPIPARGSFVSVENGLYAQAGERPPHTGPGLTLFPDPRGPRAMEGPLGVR

B1: mouse PVRL2-his (ligand, UniProt P32507 32-351, looked up)
chain: QDVRVRVLPEVRGRLGGTVELPCHLLPPTTERVSQVTWQRLDGTVVAAFHPSFGVDFPNSQFSKDRLSFVRARPETNADLRDATLAFRGLRVEDEGNYTCEFATFPNGTRRGVTWLRVIAQPENHAEAQEVTIGPQSVAVARCVSTGGRPPARITWISSLGGEAKDTQEPGIQAGTVTIISRYSLVPVGRADGVKVTCRVEHESFEEPILLPVTLSVRYPPEVSISGYDDNWYLGRSEAILTCDVRSNPEPTDYDWSTTSGVFPASAVAQGSQLLVHSVDRMVNTTFICTATNAVGTGRAEQVILVRESPSTAGAGATGG
notes: also called His-tagged PVRL2; his-tagged mouse PVLR2
B2: CPA.7.021 IgG conjugated with Alexa 647 (antibody, V domains shown)
VH: EVQLVESGGGVVKPGGSLRLSCAASGFTFGTSSMNWVRQAPGKGLEWVAVISFDGTEIHYADSVKGRFTISRDNSKSTVFLQMNSLRPDDTALYYCAKGSGNIYFYSGMDVWGQGTTVTVSS
VL: DIQMTQSPSTLSASVGDRVTITCRAGQSISGWLAWFQQKPGKAPNLLIYETSTLESGVPSRFSGSGSGTEYTLTISSLQPDDFATYYCQQYYSYPLTFGQGTKVEIK

What was measured:
[1] = target: T2, mouse PVRIG on HEK293 over-expressing cells (mouse); assay: FACS, 60 µg/ml on HEK293 OX mouse PVRIG; one of two sources
T2 construct: whole, on cells; also called HEK293 OX mouse PVRIG; mouse PVRIG-FLAG

[2] = target: T1, human PVRIG (Poliovirus Receptor …); assay: FACS on Jurkat cells after PVRIG siRNA knock down
[3] = target: T1, human PVRIG (Poliovirus Receptor …); assay: FACS on Jurkat cells transfected with scrambled siRNA
[4] = target: T1, human PVRIG (Poliovirus Receptor …); assay: flow cytometry equilibrium titration on HEK 293 cells expressing human PVRIG, 1:1 fit

| Binder | fold binding vs empty vector cells [1] [fold] | fold change (anti PVRIG vs isotype control) [2] [fold] | fold change (anti PVRIG vs isotype control) [3] [fold] | Kd [4] [nM] |
| --- | --- | --- | --- | --- |
| B1 | 2 |  |  |  |
| B2 |  | 2.8 | 15.3 | 2.5 |
